Five molecules from US20220025023A1 (AC IMMUNE, published 2022) can be followed below.

One may read the EC50 as the concentration at which the effect is half-maximal. Low readings indicate greater potency, high ones weaker potency.

Assay [1] addresses T1, recombinant human full-length TDP-43 (human, UniProt Q13148 1-414).
T1 construct: Recombinant full-length protein; also called FL TDP-43; recFL TDP-43
In words: SPR avidity (Biacore T200), TDP-43 monomer immobilised, antibody as analyte, 1:1 model. As for the experimental part:
(§1) Avidity measurements were performed on an SPR instrument (Biacore T200, GE Healthcare Life Sciences) using CM5 Series S sensor chips. Recombinant human FL TDP-43 monomers or aggregated recombinant human FL TDP-43 was immobilized on a CM5 chip using amine coupling, injecting at a flow rate of 5 μl/min for 420 seconds. Conditions were optimized so that less than 200 RU protein was immobilized. Binding of the antibodies and the control antibody (2E2-D3) were obtained by injecting at: 1.37, 4.11, 12.33, 37, 111, and 333 nM in 1×PBS P+ at a flow rate of 50 μl/min for 90 s contact time and 600 s dissociation phase, with three regeneration cycles of the ligand surface by 10 mM Glycine-HCl (pH 1.7). Kinetics were analyzed using a 1:1 fitting model (see FIG. 8).
For orientation: Surface plasmon resonance follows binding to a sensor surface in real time, without labels.

The target of assay [2] is T1, recombinant human full-length TDP-43. In words: SPR affinity (Biacore 8K), antibody captured on anti-mouse IgG, TDP-43 monomer as analyte, single cycle kinetics, 1:1 model. As for the experimental part:
Binding affinity to FL TDP-43 was evaluated by determining the dissociation constant (KD) using surface plasmon resonance (SPR; Biacore 8K, GE Healthcare Life Sciences). Anti-mouse IgG was immobilized on a CM5 Series S sensor chip (GE Healthcare Life Sciences) by amine coupling. Immobilization of andi-IgG was done at a concentration of 30 μg/ml in 10 mM sodium acetate (pH 5.5) with a flow rate of 10 μl/min for 500 s. The purified antibodies being tested, and the control antibody (2E2-D3), were injected at a concentration of 1 μg/ml at a flow rate of 10 μl/min for 500 s in 10 mM Na-acetate (pH 5.5). To evaluate KDs, recombinant human FL TDP-43 monomer analyte was injected at […] starting from 400 nM and diluting down to 1.6 nM using single cycle kinetics. The protein analyte was injected at a flow rate of 20 μl/min for 600 s contact time and a 1200 s dissociation phase, without intermediate regeneration steps. Result obtained from kinetics was evaluated using a 1:1 binding model analysis.

For assay [3], the target named is T2, BSA (bovine, UniProt P02769).
T2 construct: not specified; also called bovine serum albumin
Put plainly: indirect ELISA, control coat in the 15-mer series, hybridoma supernatant. In general terms: ELISA stands for enzyme-linked immunosorbent assay.

The target in assay [4] is T3, TDP-1 peptide (human).
T3 construct: Immunogen peptide; conjugated to Luminex beads in the assay; also called TDP-43 aa 212-272
T3 peptide: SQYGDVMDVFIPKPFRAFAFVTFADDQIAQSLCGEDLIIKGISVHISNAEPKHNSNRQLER
Put plainly: Luminex bead assay, antibody serial dilution, TDP-1 peptide beads.

Assay [5] deals with T4, aggregated recombinant human FL TDP-43 (human, UniProt Q13148 1-414).
T4 construct: also called TDP-43 aggregates
In words: SPR avidity (Biacore T200), aggregated TDP-43 immobilised, antibody as analyte, 1:1 model. As for the experimental part:
as §1

In assay [6] the target is T5, TDP-3 peptide (human).
T5 construct: Irrelevant control peptide; conjugated to Luminex beads in the assay; also called TDP-43 aa 310-370; irrelevant target
T5 peptide: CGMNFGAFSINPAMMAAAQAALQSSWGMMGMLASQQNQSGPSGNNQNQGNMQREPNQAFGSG
Put plainly: Luminex bead assay, TDP-3 peptide beads (irrelevant target).

T4 sequence (Q13148 whole entry): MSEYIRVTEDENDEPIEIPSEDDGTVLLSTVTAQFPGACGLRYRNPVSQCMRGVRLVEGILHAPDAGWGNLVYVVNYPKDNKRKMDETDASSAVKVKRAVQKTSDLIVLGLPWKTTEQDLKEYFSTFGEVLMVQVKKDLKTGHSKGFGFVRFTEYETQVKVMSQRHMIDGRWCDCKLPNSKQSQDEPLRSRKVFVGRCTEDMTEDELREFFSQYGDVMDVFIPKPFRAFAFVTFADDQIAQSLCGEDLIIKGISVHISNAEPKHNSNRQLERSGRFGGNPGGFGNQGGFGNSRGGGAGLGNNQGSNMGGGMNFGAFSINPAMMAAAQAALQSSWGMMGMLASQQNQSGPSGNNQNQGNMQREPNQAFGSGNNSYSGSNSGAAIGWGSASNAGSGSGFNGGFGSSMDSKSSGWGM
T1 sequence (Q13148 whole entry): as above
T2 sequence (P02769 25-607 limits assumed): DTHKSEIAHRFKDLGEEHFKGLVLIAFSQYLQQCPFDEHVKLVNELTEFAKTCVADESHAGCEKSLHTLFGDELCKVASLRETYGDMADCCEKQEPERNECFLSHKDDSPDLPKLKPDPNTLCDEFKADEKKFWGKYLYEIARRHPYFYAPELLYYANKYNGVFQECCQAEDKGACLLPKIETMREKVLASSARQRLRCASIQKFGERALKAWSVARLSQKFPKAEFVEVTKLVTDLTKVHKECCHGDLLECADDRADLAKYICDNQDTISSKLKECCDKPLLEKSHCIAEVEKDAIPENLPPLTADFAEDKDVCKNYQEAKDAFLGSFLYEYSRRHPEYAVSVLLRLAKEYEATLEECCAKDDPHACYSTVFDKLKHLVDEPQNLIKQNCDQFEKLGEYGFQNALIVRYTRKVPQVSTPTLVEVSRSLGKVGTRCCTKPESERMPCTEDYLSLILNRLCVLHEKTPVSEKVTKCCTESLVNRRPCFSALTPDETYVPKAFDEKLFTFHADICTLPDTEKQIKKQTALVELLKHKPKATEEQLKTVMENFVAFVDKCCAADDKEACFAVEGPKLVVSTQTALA

B1: ACI-7062-410H3-Ab1 (antibody, IgG1, V domains shown)
VH: DVQLVESGGGLVQPGGSRRLSCAASGFTFSSFGMHWVRQAPEKGLEWVAYIRSGSDIIYYADSVKGRFTISRDNPENTLFLQMTSLRSEDTAMYYCARSGTTVPFDYWGQGTSLTVSS
VL: DIVMTQSPSSLAMSVGQKVTMSCKSSQSLLNSGNQKNYLAWYQQKPGQSPELLLYFASTRASGVPDRFIGSGSGTDFTLTISSVQAEDLADYFCQQHYSIPLTFGAGTKLELKR
notes: also called 410H3B9; clone 7
Consider B1, for which the values for the Kd in assay [1], in assay [2] and in assay [5] were 6 nM, 242 nM and 19.2 nM, respectively. Moreover, the binding result in assay [3] and in assay [6] was “no binding” each time. In assay [4], the EC50 is less than 0.01 nM.

B2: ACI-7062-412A7-Ab1 (antibody, IgG2b, V domains shown)
VH: DVQLVESGGGLVQPGGSRRLSCAASGFTFSSFGMHWVRQAPEKGLEWVAYIRSGSDIIYYADSVKGRFTISRDNPENTLFLQMTSLRSEDTAMYYCARSGTTVPFDYWGQGTSLTVSS
VL: DIVMTQSPSSLAMSVGQKVTMSCKSSQSLLNSGNQKNYLAWYQQKPGQSPELLLYFASTRASGVPDRFIGSGSGTDFTLTISSVQAEDLADYFCQQHYSIPLTFGAGTKLELKR
notes: also called 412A7B7; clone 9
As for B2, the Kd in assay [1] amounted to 1 nM; in assay [2] it was 66.1 nM; in assay [5] it was 0.3 nM. The binding result in assay [3] and in assay [6] was “no binding” in each case. Besides, the concentration for a half-maximal effect (EC50) in assay [4] is less than 0.01 nM.

B3: ACI-7062-406E3-Ab1 (antibody, IgG2a, V domains shown)
VH: QVTLKESGPAILQPSQTLSLTCSFSGFSLTTYGIGVGWIRQPSGKGLEWLAHIWWNDNKYYNTALKSRLTVSKDTSNNQVFLKIASVDTADTATYYCARVYGNLYYFAYWGQGTTLTVSS
VL: DVLMTQTPLSLPVSLGDRASISCRSSQSIVHRSGNTYLEWYLQKPGQSPKLLIYKVSNRFSGVPDRFSGSGSGTDFTLKISRVEAEDLGVYYCFQGSHVPTFGAGTKLELKR
notes: also called 406E3D5; clone 5
Take B3: the figures for the Kd in assay [1], in assay [2] and in assay [5] were 0.8 nM, 193 nM and 0.2 nM, respectively. The binding result in assay [3] and in assay [6] was “no binding” throughout. The same molecule showed a concentration for a half-maximal effect (EC50) in assay [4] of less than 0.01 nM.

B4: ACI-7062-406E3-Ab2 (antibody, IgG2a, V domains shown)
VH: QVTLKESGPAILQPSQTLSLTCSFSGFSLTTYGIGVGWIRQPSGKGLEWLAHIWWNDNKYYNTALKSRLTVSKDTSNNQVFLKIASVDTADTATYYCARVYGNLYYFAYWGQGTTLTVSS
VL: DVLMTQTPLSLPVSLGDRASISCRSSQSIVHRSGNTYLEWYLQKPGQSPKLLIYKVSNRFSGVPDRFSGSGSGTDFTLKISRVEAEDLGVYYCFQGSHVPTFGAGTKLELKR
notes: also called 406E3G10; clone 6
As to B4, the Kd in assay [1] amounted to 0.3 nM; in assay [2], 101 nM; in assay [5] it was 0.4 nM. The binding result in assay [3] and in assay [6] was “no binding” in each case. Besides, in assay [4], the EC50 was less than 0.01 nM.

B5: ACI-7062-416A11-Ab1 (antibody, IgG2a, V domains shown)
VH: QVTLKESGPGILQSSQTLSLTCSFSGFSLSTYGIGVGWIRQPSGKGLEWLAHIWWNDNKYYNTALKSRLTISKDTSNNQVFLKIASVDTADAATYYCARVYGNLYYFGYWGQGTTLTVSS
VL: DVLMTQTPLSLPVSLGDRASISCRSSQSIVHSSGNTYLEWYLQKPGQSPKLLIYKVSNRFSGVPDRFSGSGSGTDFTLKISRVEAEDLGVYYCFQGSRVPTFGAGTKLELKR
notes: also called 416A11B3; clone 18
Take B5: the values for the Kd in assay [1], in assay [2] and in assay [5] were 2.4 nM, 307 nM and 1.2 nM, respectively. Besides, the binding result in assay [3] and in assay [6] was “no binding” in each case. The concentration for a half-maximal effect (EC50) in assay [4] was less than 0.01 nM.
